From publication PMC4505066, “Insights into the Recruitment of Class IIa Histone Deacetylases (HDACs) to the SMRT/NCoR Transcriptional Repression Complex” (The Journal of Biological Chemistry, 2015)

B1: wild type GSI motif peptide (…), SMRT amino acids 1450-1469 with an amino-terminal cysteine [modified: BODIPY-TMR coupled to the N-terminal cysteine; BODIPY-TMR coupled to the N-terminal cysteine] [not stated] (parent)
chain 1: CPRPLKEGSITQGTPLKYDTG
chain 2: TKPRFTTGLVYDTLMLKHQCTCGSSSSHPEHAGRIQSIWSRLQETGLRGKCECIRGRKATLEELQTVHSEAHTLLYGTNPLNRQKLDSKKLLGSLASVFVRLPCGGVGVDSDTIWNEVHSAGAARLAVGCVVELVFKVATGELKNGFAVVRPPGHHAEESTPMGFCYFNSVAVAAKLLQQRLSVSKILIVDWDVHHGNGTQQAFYSDPSVLYMSLHRYDDGNFFPGSGAPDEVGTGPGVGFNVNMAFTGGLDPPMGDAEYLAAFRTVVMPIASEFAPDVVLVSSGFDAVEGHPTPLGGYNLSARCFGYLTKQLMGLAGGRIVLALEGGHDLTAICDASEACVSALLGNELDPLPEKVLQQRPNANAVRSMEKVMEIHSKYWRCLQRTTSTAGRSLIEAQTCENEEAETVT

Variants of: B1
Test: fluorescence anisotropy
Details: with HDAC4 catalytic domain

Kd, > 1000 µM:
chain 1 CPRPLKEASITQGTPLKYDTG [chain 1 G8A]
chain 1 CPRPLKEGSITQATPLKYDTG [chain 1 G13A]
chain 1 CPRPLKEGSATQGTPLKYDTG [chain 1 I10A]
chain 1 CPRPLKEGSDTQGTPLKYDTG [chain 1 I10D]
chain 1 CPRPLKEGAITQGTPLKYDTG [chain 1 S9A]
chain 1 CPRPLKEGTITQGTPLKYDTG [chain 1 S9T]
chain 1 CPRPLKEGSITQGSPLKYDTG [chain 1 T14S]
